The values that follow come from paper PMC9636508, “Reciprocal interactions among Cobll1, PACSIN2, and SH3BP1 regulate drug resistance in chronic myeloid leukemia” (Cancer Medicine, 2022).

Assay [1] deals with T1, SH3BP1-CT (C-terminal region of SH3BP1, residues 541-701) (UniProt Q9Y3L3 541-701).
T1 construct: SH3BP1 C-terminal region containing all proline-rich motifs, residues 541-701, cloned into pET-21a; also called SH3PB1-CT; source: E. coli BL21-CodonPlus (DE3), purified (Ni column, Superdex 75)
T1 sequence (looked up): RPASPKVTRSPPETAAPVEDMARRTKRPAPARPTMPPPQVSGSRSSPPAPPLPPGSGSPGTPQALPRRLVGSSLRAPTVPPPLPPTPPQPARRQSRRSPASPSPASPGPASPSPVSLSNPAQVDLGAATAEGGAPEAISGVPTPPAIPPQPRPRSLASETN
Kind of assay: SPR; PACSIN2 SH3 domain immobilised on a PEG chip by amine coupling (Reichert SR7500DC); 25°C; PBS (10 mM KH2PO4, 137 mM NaCl, 2.7 mM KCl, pH 7.4); 3 min association, 10 min dissociation. The following applies: both partners purified. A general note: In SPR one partner is held on a chip, and binding of the other changes the refractive index at the surface.

Assay [2] concerns the target T2, Cobll1-NT-f (N-terminal region of Cobll1, residues 1-410) (UniProt Q53SF7 1-410).
T2 construct: Cobll1 N-terminal region, residues 1-410, cloned into pGEX-4T-1; source: E. coli BL21-CodonPlus (DE3), purified (GST column, tag cleavage, ion exchange, Superdex)
Described as above. The conditions noted are these: both partners purified.

T2 sequence (Q53SF7 1-410): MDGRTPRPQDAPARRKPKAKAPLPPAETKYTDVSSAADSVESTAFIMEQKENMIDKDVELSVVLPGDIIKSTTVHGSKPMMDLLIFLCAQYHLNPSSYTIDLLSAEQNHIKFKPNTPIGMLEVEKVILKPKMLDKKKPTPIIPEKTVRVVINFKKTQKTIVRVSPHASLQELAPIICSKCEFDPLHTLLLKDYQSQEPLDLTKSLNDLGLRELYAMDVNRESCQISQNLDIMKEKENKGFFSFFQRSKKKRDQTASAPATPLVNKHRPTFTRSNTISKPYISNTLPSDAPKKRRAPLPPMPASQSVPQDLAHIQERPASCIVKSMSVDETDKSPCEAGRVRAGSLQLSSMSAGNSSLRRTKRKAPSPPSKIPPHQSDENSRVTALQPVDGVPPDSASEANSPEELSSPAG

B1: PACSIN2 SH3 domain (residues 430-486), purified (domain or fragment)
chain: not shown
notes: 15N- or 15N,13C-labelled for NMR, unlabelled for SPR; source: E. coli BL21-CodonPlus (DE3), purified (GST column, tag cleavage, ion exchange, Superdex)
One may read the Kd as the constant that tells how readily two partners part at equilibrium. On to B1, for which the equilibrium dissociation constant (Kd) in assay [1] stood at 2200 nM; in assay [2], 25.8 nM.
